The values that follow come from patent publication US20250339569A1 (3B PHARMACEUTICALS, published 2025).

Starred links: 1 amine or outer side, 2 acyl side, 3 side chain; linkers in the order of their positions; H or OH if unused. Positions of bridges follow the written chain, without caps; N, C: chain ends. Non-standard residues stand in square brackets, D forms with d. Groups on a side chain read outwards from the residue. Primed or numbered codes have the meaning given here. No end group written: not given here. *: point of attachment. Af3(2Py6SaNH) = 3-amino-L-phenylalanine, ring amine acylated by 6-(sulfamoylamino)pyridine-2-carboxylic acid, NS(=O)(=O)Nc1cccc(C(=O)Nc2cccc(C[C@H](N[*:1])C(=O)[*:2])c2)n1; Af3(TzPr) = 3-amino-L-phenylalanine acylated on the ring amine with 3-(1H-1,2,4-triazol-3-yl)propanoic acid, O=C(CCc1nc[nH]n1)Nc1cccc(C[C@H](N[*:1])C(=O)[*:2])c1; Af3(Ac-Glu) = 3-aminophenylalanine acylated on the ring amine with N-acetyl-glutamic acid, CC(=O)N[C@@H](CCC(=O)[*:3])C(=O)Nc1cccc(C[C@H](N[*:1])C(=O)[*:2])c1; APAc″ = 2-(4-(amino)piperidin-1-yl)acetic acid, NC1CCN(CC(=O)*)CC1; DOTA = O=C(O)CN1CCN(CC(=O)O)CCN(CC(=O)*)CCN(CC(=O)O)CC1; PPAc = 4-carboxymethyl piperazine linker; mXylylene = c1cc(C[*:1])cc(C[*:2])c1; APAc = not defined here; Apr = not defined here; Dap = NC[C@H](N)C(=O)O; AEEA = NCCOCCOCC(=O)O; Ttds″ = Ttds spacer

The chains are these.
B1: 3BP-4514 (peptide)
peptide: {DOTA-PPAc}-QCE[dP]D[Af3(2Py6SaNH)]LTWSC-NH2
modifications: linker 2-11 via mXylylene
B2: 3BP-3279 (peptide)
peptide: {DOTA-Ttds″}-VYCE[dA]DWLTWAC-NH2
modifications: linker 3-12 via mXylylene; not fully specified
B3: 3BP-3328 (peptide)
peptide: VYCEGDWLTWQC-NH2
modifications: linker 3-12 via mXylylene; not fully specified (N-terminus); also: indium complexed by DOTA
B4: 3BP-3734 (peptide)
peptide: Ac-VRCE[dP]DWLTWE([Apr-AEEA-DOTA])C-NH2
modifications: linker 3-12 via 3MeBn; reading uncertain
B5: 3BP-3280 (peptide)
peptide: Ac-VYCE[dA]DWLTWAC-NH2
modifications: linker 3-12 via mXylylene
SMILES: CC(=O)N[C@H](C(=O)N[C@@H](Cc1ccc(O)cc1)C(=O)N[C@H]1CSCc2cccc(c2)CSC[C@@H](C(N)=O)NC(=O)[C@H](C)NC(=O)[C@H](Cc2c[nH]c3ccccc23)NC(=O)[C@H]([C@@H](C)O)NC(=O)[C@H](CC(C)C)NC(=O)[C@H](Cc2c[nH]c3ccccc23)NC(=O)[C@H](CC(=O)O)NC(=O)[C@@H](C)NC(=O)[C@H](CCC(=O)O)NC1=O)C(C)C
B6: 3BP-3599 (peptide)
peptide: {DOTA-APAc}-VYCE[dP]DWLTWRC-NH2
modifications: linker 3-12 via mXylylene; reading uncertain
B7: 3BP-3732 (peptide)
peptide: Ac-SYCE[dP]DWLTWE([Apr-AEEA-DOTA])C-NH2
modifications: linker 3-12 via 3MeBn; reading uncertain
B8: 3BP-4264 (peptide)
peptide: {DOTA}-VDCE[dP]DWLTW[Dap]C-NH2
modifications: lactam 2-11; linker 3-12 via mXylylene
SMILES: CC(C)C[C@@H]1NC(=O)[C@H](Cc2c[nH]c3ccccc23)NC(=O)[C@H](CC(=O)O)NC(=O)[C@H]2CCCN2C(=O)[C@H](CCC(=O)O)NC(=O)[C@@H]2CSCc3cccc(c3)CSC[C@@H](C(N)=O)NC(=O)[C@H](CNC(=O)C[C@H](NC(=O)[C@@H](NC(=O)CN3CCN(CC(=O)O)CCN(CC(=O)O)CCN(CC(=O)O)CC3)C(C)C)C(=O)N2)NC(=O)[C@H](Cc2c[nH]c3ccccc23)NC(=O)[C@H]([C@@H](C)O)NC1=O
B9: 3BP-4337 (peptide)
peptide: VDCE[dP]DWLTW[Dap]C-NH2
modifications: lactam 2-11; linker 3-12 via mXylylene; not fully specified (N-terminus); also: indium complexed by DOTA
B10: 3BP-4324 (peptide)
peptide: {DOTA-APAc″}-VYCE[dP]D[Af3(TzPr)]LTWSC-NH2
modifications: linker 3-12 via mXylylene
B11: 3BP-4361 (peptide)
peptide: {DOTA-APAc″}-VYCE[dP]D[Af3(Ac-Glu)]LTWSC-NH2
modifications: linker 3-12 via mXylylene

One assay deals with T1, Fc-fusion protein of human carbonic anhydrase IX (human, UniProt Q16790 38-414). Nature of the assay: SPR, captured hCAIX-Fc; t1/2 category B: 5.1-15.0 min. How it is done: (§1) Stock solutions of test compounds were prepared by dissolving each compound in DMSO. DMSO stock solution were diluted 1:1000 in Running Buffer without DMSO. […] SPR binding analyses were performed in Single Cycle Kinetic (SCK) mode at 25° C.
(§2) For each test compound, SPR raw data in the form of resonance units (RU) were plotted as sensorgrams using the Biacore™ T200 control software. The signal from the blank sensorgram was subtracted from that of the test compound sensorgram (blank corrected). The blank corrected sensorgram was corrected for baseline drift by subtracting the sensorgram of a SCK run without the test compound (running buffer only). […] Raw data and fit results were imported as text files in IDBS. The pKD value (negative decadic logarithm of dissociation constant) was calculated in the IDBS excel template.
On the technique in general: Surface plasmon resonance follows binding to a sensor surface in real time, without labels.
Turning to B1, the “t1/2 (half-life of the complex, SPR)” value fell in the range of 5.1 to 15 min.
Same read-out and setting: under B2 stands 5.1 to 15 min; under B3, 5.1 to 15 min.
Same read-out and setting: under B4 stands 5.1 to 15 min; under B5, 5.1 to 15 min.
The same measure, in the same setting: for B6 the value was 5.1 to 15 min.
On to B7, for which the “t1/2 (half-life of the complex, SPR)” value is 5.1 to 15 min.

The target in a further assay is T1, Fc-fusion protein of human carbonic …. Nature of the assay: SPR, captured hCAIX-Fc; t1/2 category A: >15.0 min. How it is done: as §1, §2
With B8, the “t1/2 (half-life of the complex, SPR)” value is more than 15 min.
For the molecule B9, the “t1/2 (half-life of the complex, SPR)” value is more than 15 min.
For B10, the “t1/2 (half-life of the complex, SPR)” value is more than 15 min.
The same measure, in the same setting: under B11 stands more than 15 min.

For the next assay the target is unchanged. Kind of assay: SPR, captured hCAIX-Fc; pKD category A: >8.0. As to the method: as §1, §2
For B8, the pKD is more than 8 pkd.
On the same count and under the same terms, for B2 the value was more than 8 pkd; for B3, more than 8 pkd.
On the same count and under the same terms, under B4 stands more than 8 pkd; under B5, more than 8 pkd; under B6, more than 8 pkd.
On the same count and under the same terms, for B7 the value was more than 8 pkd; for B9, more than 8 pkd; for B10, more than 8 pkd.
In turn, B11 had a pKD of more than 8 pkd.
